Measurements reported in patent US20110294748A1 (Janssen / Centocor, published 2011).

B1: peptide-Alkaline phosphatase-His6 fusion protein of clone 17 (other)
chain: DDIDEFLHQLHNLVNNVHTPEMPVLENRAAQGDITTPGGARRLTGDQTAALRDSLSDKPAKNIILLIGDGMGDSEITAARNYAEGAGGFFKGIDALPLTGQYTHYALNKKTGKPDYVTDSAASATAWSTGVKTYNGALGVDIHEKDHPTILEMAKAAGLATGNVSTAELQGATPAALVAHVTSRKCYGPSATSEKCPGNALEKGGKGSITEQLLNARADVTLGGGAKTFAETATAGEWQGKTLREQAQTRGYQLVSDAASLNSVTEANQQKPLLGLFADGNMPVRWLGPKATYHGNIDKPAVTCTPNPQRNDSVPTLAQMTDKAIELLSKNEKGFFLQVEGASIDKQNHAANPCGQIGETVDLDEAVQRALEFAKKEGNTLVIVTADHAHASQIVAPDTKAPGLTQALNTKDGAVMVMSYGNSEEDSQEHTGSQLRIAAYGPHAANVVGLTDQTDLFYTMKAALGLKVPGGSGGGSGGGSGGGSGTPEMPVLENRAAQGDITTPGGARRLTGDQTAALRDSLSDKPAKNIILLIGDGMGDSEITAARNYAEGAGGFFKGIDALPLTGQYTHYALNKKTGKPDYVTDSAASATAWSTGVKTYNGALGVDIHEKDHPTILEMAKAAGLATGNVSTAELQGATPAALVAHVTSRKCYGPSATSEKCPGNALEKGGKGSITEQLLNARADVTLGGGAKTFAETATAGEWQGKTLREQAQTRGYQLVSDAASLNSVTEANQQKPLLGLFADGNMPVRWLGPKATYHGNIDKPAVTCTPNPQRNDSVPTLAQMTDKAIELLSKNEKGFFLQVEGASIDKQNHAANPCGQIGETVDLDEAVQRALEFAKKEGNTLVIVTADHAHASQIVAPDTKAPGLTQALNTKDGAVMVMSYGNSEEDSQEHTGSQLRIAAYGPHAANVVGLTDQTDLFYTMKAALGLKVPGNSHHHHHH
notes: Tested as bacterial culture supernatant; also called peptide-AP fusion clone 17
B2: PG-peptide fusion of clone 17 (protein G IgG domain with peptide SEQ ID NO: 13 at its C-terminus) (other)
chain: YKLILNGKTLKGETTTEAVDAATAEKVFKQYANDNGVDGEWTYDDATKTFTVTEDDIDEFLHQLHNLVNNVH
notes: also called PG-peptide fusion clone 17; fusion protein with peptide clone 17

Legend:
[1] = target: T1, soluble IGF1R (sIGF1R), extracellular domain of human insulin-like growth factor 1 receptor, carboxy-terminal … (human, UniProt P08069 31-932); test: ELISA, culture supernatant on 2 µg/ml coated sIGF1R, Attophos detection
T1 construct: Bought from R&D Systems; GenBank NP-000866 is printed for the whole receptor; also called IFG1R
Description: The binding of purified peptide-AP fusion proteins to sIGF1R was assessed using ELISA against immobilized sIGF1R. Briefly, bacteria transformed with each peptide-AP fusion expression vector were grown overnight and the following day the cultures were clarified by centrifugation at 4,500 rpm, 4° C. The supernatants were collected and 75 μl of each supernatant was assayed for binding to 2 μg/ml sIGF1R immobilized on ELISA plates. The bound peptides were detected using the Attophos Substrate (Roche, Indianapolis, Ind.) following the manufacturer's recommendation and read using a Molecular Devices M5 plate reader.

[2] = target: T1, soluble IGF1R (sIGF1R), extracellular …; test: ELISA, serially diluted PG-peptide fusion on coated sIGF1R
Description: Relative binding affinities of the PG-peptide fusions for sIGF1R were measured using ELISA. The Kds were determined using GraphPad Prism 4 software with a one site binding equation. 100 μl of 2 μg/ml sIGF1R(R&D Systems, Minneapolis, Minn.) in Dulbecco's Phosphate Buffer Saline (DPBS (−/−)) was coated onto a 96 well Black Maxisorp plates (Nunc, Rochester, N.Y.) overnight at 4° C. The plates were washed with TBST and the wells blocked with 200 μl/well Starting Block T20 (TBS) (Pierce, Rockford, Ill.) for 1 hr, room temperature with 300 rpm shaking. 75 μl/well of purified, serially diluted PG-peptide fusions, starting concentration 40 μM, was added into the wells and incubated for 1 h, room temperature with 300 rpm mixing; the volume was brought up to 100 μl with Starting Block T20. The plates were washed 3× with TBST and then probed with 100 μl/well Peroxidase labeled-Rabbit antibody (1:5000) (Rockland, Gilbertsville, Pa.), washed, and the signal was detected using 100 μl/well POD substrate (Roche, Indianapolis, Ind.). Chemiluminescence was detected using a Molecular Devices M5 plate reader.
The fusion protein with peptide clone 17 was unique in its binding profile in that the binding curve was bellshaped. […]

| binding result [1] | binding result [2] | Binder |
| --- | --- | --- |
| binds |  | B1 |
|  | binds | B2 |
